For one assay, the system named is PDCL3 with VEGFR-2. In words: Brefeldin A treatment, co-immunoprecipitation of PDCL3 with VEGFR-2. The class given is cell-based. The settings on record: HEK-293 cells. The protocol:
FIG. 7A. Cells expressing VEGFR-2 alone or together were subjected cell surface biotinylation. Non-biotinylated and biotinylated fractions were immunoprecipitated with anti-VEGFR-2 antibody and blotted for PDCL3 using anti-c-Myc antibody. Non-biotinylated and biotinylated fractions also were blotted for VEGFR-2 and PARP as a control. FIG. 7B. HEK-293 cells were co-transfected with Myc-tagged PDCL3 and VEGFR-2 and after 48 hours they were treated with BFA or control vehicle. Cells were lysed and whole cell lysates were either blotted for VEGFR-2 or were subjected co-immunoprecipitation using anti-c-Myc antibody followed by immunoblotting with anti-VEGFR-2. FIG. 7C. HEK-293 cells were co-transfected with Myc-tagged PDCL3 and VEGFR-2 and after 48 hours cells were fixed and subjected to IF staining as described in Materials and Method section. Cells were stained with anti-PDCL3, anti-c-myc antibodies (FIGS. 7C-7D) or endoplasmic reticulum specific dye FIG. 7E.

In the next assay the test system is VEGFR-2. In words: Co-immunoprecipitation with VEGFR-2 and VEGFR-2 ubiquitination blot. The class given is cell-based. The note with it: HEK-293 cells co-expressing VEGFR-2. As for the experimental part: (§1) FIG. 6A. Cell lysates from HEK-293 cells co-expressing PDCL3 with VEGFR-2 or HA-PDCL3 with VEGFR-2 were immunoprecipitated with VEGFR-2 and immunoblotted for PDCL3 using anti-Myc antibody. Whole cell lysates was also blotted for VEGFR-2, PDCL3 and HSp70 as a loading control. Ubiquitination of VEGFR-2 was determined by immunoprecipitation with anti-VEGFR-2 followed by immunoblotting with anti-ubiquitin antibody. FIG. 6B. The graph is quantification of the ubiquitination blot of VEGFR-2. FIG. 6C. Angiogenic potential of wild-type and HA-tagged methionine mutant PDCL3 expressed in PAE cells is shown. PAE cells engineered to express VEGFR-2 alone, VEGFR-2 with wild-type PDCL3 or VEGFR-2 with HA-tagged methionine mutant PDCL3. Cells were plated on matrigel and pictures were taken after 12 hours. Image J was used to quantify tube formation. Graph is representative of three independent experiments.
Plasmids and siRNA: Human Phosducin like protein 3 cDNA (PDCL3 also called PHLP2A) (Clone #3344703, accession #BC001021) was purchased from OPEN BIOSYSTEMS and was cloned into expression vectors, pcDNA3.1/Myc-His(−) or retroviral pMSCV. Mutant PDCL3 was generated by removing the first methionine and adding HA tag and similarly was cloned into pcDNA3.1 and pMSCV vectors. […]

Another assay deals with PAE cells. In words: Capillary tube formation on matrigel. The class given is cell-based, porcine. The note with it: over-expression with VEGFR-2 in endothelial cells, 12 hours. As for the experimental part:
as §1

With `C[C@H]1CCC/C=C/[C@@H]2C[C@H](O)C[C@H]2[C@H](O)/C=C/C(=O)O1` [Brefeldin A], the “binding of PDCL3 with VEGFR-2” value with PDCL3 with VEGFR-2 is listed as “did not inhibit the binding of PDCL3 with VEGFR-2”.

B1: acetylation resistant HA-tagged PDCL3: Mutant PDCL3 generated by removing the first methionine and adding HA tag (protein)
chain: QDPNADTEWNDILRKKGILPPKESLKELEEEAEEEQRILQQSVVKTYEDMTLEELEDHEDEFNEEDERAIEMYRRRRLAEWKATKLKNKFGEVLEISGKDYVQEVTKAGEGLWVILHLYKQGIPLCALINQHLSGLARKFPDVKFIKAISTTCIPNYPDRNLPTIFVYLEGDIKAQFIGPLVFGGMNLTRDELEWKLSESGAIMTDLEENPKKPIEDVLLSSVRRSVLMKRDSDSEGD
modifications: left off: small tags and cut ends
With B1, in the assay with VEGFR-2, the “interaction with VEGFR-2” value is “interacted strongly with VEGFR-2 compared to wild-type PDCL3” and the “ubiquitination of VEGFR-2” value is on record as “prevented VEGFR-2 from ubiquitination”. Besides, the angiogenesis/capillary tube formation result in the assay on PAE cells is reported as “more robust”.
